Measurements as given in US20220204643A1 (published 2022).

Legend:
[1] = target: T1, UTP6 small subunit processome component (human, UniProt Q9NYH9 1-597)
T1 sequence: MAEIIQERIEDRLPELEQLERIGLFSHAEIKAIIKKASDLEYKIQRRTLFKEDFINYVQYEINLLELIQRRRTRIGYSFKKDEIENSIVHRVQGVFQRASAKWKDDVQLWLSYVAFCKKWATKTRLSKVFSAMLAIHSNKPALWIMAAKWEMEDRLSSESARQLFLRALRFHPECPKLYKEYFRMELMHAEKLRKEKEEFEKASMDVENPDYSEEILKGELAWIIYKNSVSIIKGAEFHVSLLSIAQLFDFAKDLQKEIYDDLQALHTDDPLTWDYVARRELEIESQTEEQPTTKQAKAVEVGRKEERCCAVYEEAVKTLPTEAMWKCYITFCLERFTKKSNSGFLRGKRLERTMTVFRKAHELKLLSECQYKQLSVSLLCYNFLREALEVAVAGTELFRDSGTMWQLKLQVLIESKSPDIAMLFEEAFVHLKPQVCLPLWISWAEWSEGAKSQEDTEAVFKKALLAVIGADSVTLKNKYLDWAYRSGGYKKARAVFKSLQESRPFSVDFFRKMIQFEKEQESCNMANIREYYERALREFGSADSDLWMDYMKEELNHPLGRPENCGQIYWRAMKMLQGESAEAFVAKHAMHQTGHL

LN608403.1_frag = target: T2, LN608403.1_frag (human); assay: protein array
T2 construct: on protein array
T2 chain: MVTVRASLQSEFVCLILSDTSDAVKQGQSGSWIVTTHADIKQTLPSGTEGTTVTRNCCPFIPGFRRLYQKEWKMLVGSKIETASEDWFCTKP

[2] = target: T3, JPX transcript, XIST activator (human); assay: protein array
T3 construct: on protein array
T3 chain: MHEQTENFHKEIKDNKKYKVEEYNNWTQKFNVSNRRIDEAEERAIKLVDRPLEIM

[3] = target: T4, SNAP associated protein, transcript variant 1 (human, UniProt O95295 2-136); assay: protein array
T4 construct: on protein array; also called SNAPIN
T4 sequence: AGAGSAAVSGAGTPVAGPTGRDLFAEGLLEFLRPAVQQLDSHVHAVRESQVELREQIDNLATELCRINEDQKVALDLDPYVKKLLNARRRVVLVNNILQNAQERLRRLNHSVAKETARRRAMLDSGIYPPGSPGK

[4] = target: T5, nucleosome assembly protein 1 like 1, transcript variant 1 (human, UniProt P55209 2-388); assay: protein array
T5 construct: on protein array; also called NAP1L1
T5 sequence: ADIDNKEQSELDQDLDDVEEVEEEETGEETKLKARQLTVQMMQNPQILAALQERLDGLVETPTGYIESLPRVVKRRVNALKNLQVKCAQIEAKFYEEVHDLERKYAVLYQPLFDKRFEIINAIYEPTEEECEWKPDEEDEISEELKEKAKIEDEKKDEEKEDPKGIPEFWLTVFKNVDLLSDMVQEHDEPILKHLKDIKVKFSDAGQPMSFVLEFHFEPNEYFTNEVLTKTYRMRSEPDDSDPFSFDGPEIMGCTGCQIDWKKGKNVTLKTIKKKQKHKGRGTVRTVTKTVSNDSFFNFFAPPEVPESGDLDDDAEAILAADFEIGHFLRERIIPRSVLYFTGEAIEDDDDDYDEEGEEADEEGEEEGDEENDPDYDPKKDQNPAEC

[5] = target: T6, nudE neurodevelopment protein 1, transcript variant 1 (human, UniProt Q9NXR1 1-335); assay: protein array
T6 construct: on protein array; also called NDE1
T6 sequence: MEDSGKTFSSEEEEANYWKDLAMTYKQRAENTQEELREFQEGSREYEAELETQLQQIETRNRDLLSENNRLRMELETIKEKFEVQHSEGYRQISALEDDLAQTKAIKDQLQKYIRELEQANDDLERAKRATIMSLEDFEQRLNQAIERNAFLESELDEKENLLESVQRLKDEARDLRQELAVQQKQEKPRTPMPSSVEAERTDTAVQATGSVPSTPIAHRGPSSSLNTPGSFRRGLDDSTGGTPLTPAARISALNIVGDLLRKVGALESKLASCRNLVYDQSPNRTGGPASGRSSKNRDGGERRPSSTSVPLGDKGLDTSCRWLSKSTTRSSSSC

[6] = target: T7, TruB pseudouridine synthase family member 1 (human, UniProt Q8WWH5 2-349); assay: protein array
T7 construct: on protein array; also called TRUB1
T7 sequence: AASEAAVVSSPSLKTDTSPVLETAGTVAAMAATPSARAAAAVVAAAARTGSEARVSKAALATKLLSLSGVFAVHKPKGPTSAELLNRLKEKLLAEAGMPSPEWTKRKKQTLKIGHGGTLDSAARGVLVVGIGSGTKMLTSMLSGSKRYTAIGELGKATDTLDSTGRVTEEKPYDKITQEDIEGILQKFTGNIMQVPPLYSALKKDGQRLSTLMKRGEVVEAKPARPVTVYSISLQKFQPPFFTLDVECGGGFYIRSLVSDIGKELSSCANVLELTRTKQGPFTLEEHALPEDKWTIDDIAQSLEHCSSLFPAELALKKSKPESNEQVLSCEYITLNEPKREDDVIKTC

[7] = target: T8, phospholipid scramblase 4, transcript variant X4 (human, UniProt Q9NRQ2 1-329); assay: protein array
T8 construct: on protein array; also called PLSCR4
T8 chain: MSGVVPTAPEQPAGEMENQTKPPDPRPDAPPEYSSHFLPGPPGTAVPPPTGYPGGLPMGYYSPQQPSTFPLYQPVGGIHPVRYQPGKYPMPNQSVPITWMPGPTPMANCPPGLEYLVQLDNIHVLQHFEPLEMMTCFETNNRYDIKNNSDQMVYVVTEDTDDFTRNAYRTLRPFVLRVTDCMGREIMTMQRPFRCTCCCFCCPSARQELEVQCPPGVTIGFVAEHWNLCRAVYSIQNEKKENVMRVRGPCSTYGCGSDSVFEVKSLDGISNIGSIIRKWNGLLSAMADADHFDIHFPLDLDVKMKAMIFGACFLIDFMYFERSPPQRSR

[8] = target: T9, sorting nexin 33, transcript variant 1 (human, UniProt Q8WV41 1-574); assay: protein array
T9 construct: on protein array; also called SNX33
T9 sequence: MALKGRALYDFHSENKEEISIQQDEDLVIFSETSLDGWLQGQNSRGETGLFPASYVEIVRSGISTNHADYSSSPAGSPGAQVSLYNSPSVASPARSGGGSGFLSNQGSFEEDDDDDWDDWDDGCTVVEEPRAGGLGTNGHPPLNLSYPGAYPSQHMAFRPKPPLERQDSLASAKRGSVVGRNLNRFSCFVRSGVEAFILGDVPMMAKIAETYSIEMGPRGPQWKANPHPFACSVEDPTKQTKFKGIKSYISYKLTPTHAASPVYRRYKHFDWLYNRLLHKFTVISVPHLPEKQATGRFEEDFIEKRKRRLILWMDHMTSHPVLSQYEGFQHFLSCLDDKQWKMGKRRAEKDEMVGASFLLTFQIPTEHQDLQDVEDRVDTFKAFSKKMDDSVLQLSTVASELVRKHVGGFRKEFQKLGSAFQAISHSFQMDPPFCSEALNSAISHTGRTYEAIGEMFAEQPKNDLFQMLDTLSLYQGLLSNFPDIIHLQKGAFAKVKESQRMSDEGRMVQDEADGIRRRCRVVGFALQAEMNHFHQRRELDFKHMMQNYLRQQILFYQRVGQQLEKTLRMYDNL

[9] = target: T10, KH RNA binding domain containing, signal transduction associated 2, transcript variant 2 (human, UniProt Q5VWX1 1-349); assay: protein array
T10 construct: on protein array; also called KHDRBS2
T10 sequence: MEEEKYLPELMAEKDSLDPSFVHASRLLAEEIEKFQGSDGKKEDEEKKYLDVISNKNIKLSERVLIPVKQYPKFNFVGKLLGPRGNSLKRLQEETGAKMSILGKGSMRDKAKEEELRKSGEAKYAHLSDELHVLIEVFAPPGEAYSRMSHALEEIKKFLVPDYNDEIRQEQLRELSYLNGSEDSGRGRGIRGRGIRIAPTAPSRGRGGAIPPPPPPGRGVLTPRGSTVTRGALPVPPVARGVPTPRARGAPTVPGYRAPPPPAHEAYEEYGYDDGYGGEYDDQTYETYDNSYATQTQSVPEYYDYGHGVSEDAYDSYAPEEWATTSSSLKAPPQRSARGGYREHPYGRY

extended synaptotagmin 2 = target: T11, extended synaptotagmin 2 (human, UniProt A0FGR8 564-921); assay: protein array
T11 construct: on protein array; also called ESYT2_frag
T11 sequence: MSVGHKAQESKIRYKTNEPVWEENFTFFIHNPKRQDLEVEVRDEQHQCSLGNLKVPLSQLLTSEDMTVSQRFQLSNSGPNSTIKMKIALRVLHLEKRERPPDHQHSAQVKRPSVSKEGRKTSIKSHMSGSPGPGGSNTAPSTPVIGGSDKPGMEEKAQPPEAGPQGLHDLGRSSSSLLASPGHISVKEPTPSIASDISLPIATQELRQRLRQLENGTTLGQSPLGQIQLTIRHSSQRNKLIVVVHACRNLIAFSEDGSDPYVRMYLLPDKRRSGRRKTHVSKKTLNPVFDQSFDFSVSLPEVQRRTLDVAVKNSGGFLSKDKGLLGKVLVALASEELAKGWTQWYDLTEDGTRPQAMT

B1: TUCE1005 (antibody, V domains shown)
VH: QVQLQESGPGLVKPSETLSLTCTVSGGSISSYYWSWIRQPAGKGLEWIGRIYTSGSTNYNPSLKSRVTMSVDTSKNQFSLKMSSVTAADTAVYYCARGELLFDHWGQGTLVTVSS
VL: not shown
B1: binds [1].

B2: TBRE1045 (antibody, V domains shown)
VH: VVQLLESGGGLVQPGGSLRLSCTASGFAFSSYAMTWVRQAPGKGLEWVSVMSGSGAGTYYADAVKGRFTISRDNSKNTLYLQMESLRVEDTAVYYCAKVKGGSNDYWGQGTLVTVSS
VL: PYVLTQPPSVSVAPGQTARITCGGNNIGSKSVHWYQQKPGQAPVMVVYADRERPSGIPERLSGSNFGNTATLTISRVEAGDEADYYCQVWDSNNDHREVFGGGTKLTVLG
notes: VH/VL only
B2: binds (LN608403.1_frag); binds [2].

B3: TBLA1006 (antibody, V domains shown)
VH: VQLVDSGGGLVQPGRSLRLSCAASGFVFDDYAMHWVRQVPGKGLEWVSGISWNSVSIGYADSVKGRFTISRDNAKNSLYLQMNSLRPEDAALYYCVKSFSAEYYYYYYGMDVWGQGTTVTVSS
VL: LYVLTQPPSVSVAPGTTAWISCGGNNIGIKSVHWYQQKPGQAPLLVISYDSDRPSVIPERFSVSNSGNTVTLTISRVEAGDEADYYCQVWDNGHSHWVFGGGTKLTVLG
notes: VH/VL only
B3: binds [3].

B4: TCER1001 (antibody, V domains shown)
VH: EVQLVESGGGLVQPGRSLRLSCAASGFTFDDYAMHWVRQAPGKGLEWVSGISWNSGSIGYADSVKGRFTISRDNAKNSLYLQMNSLRAEDTALYYCAKDLLGFRDQRNYYGMDVWGQGTTVTVSS
VL: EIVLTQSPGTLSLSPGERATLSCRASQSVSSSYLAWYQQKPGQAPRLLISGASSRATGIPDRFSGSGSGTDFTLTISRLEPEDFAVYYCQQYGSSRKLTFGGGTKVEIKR
notes: VH/VL only
B4: binds [4].

B5: TCER1002 (antibody, V domains shown)
VH: QVQLQESGPGLVKPSETLSLSCTVSGASMNNYYWSWIRQSAGKGLEWIGRIYSSGDTDYNPSLKTRVTMSIDTSKNQFSLNLDSVTAADTATYYCARSFYDTLFYFENWGQGTLVTVSS
VL: DIQMTQSPSTLSASVGDRVTITCRASQSISVWLAWYQQKPGKAPKLLIYKASTLEAGVPSRFSGSGSGTEFSLTISGLQPDDFGTYFCQHYDSYPWTFGQGTKVEMK
notes: VH/VL only
B5: binds [5].

B6: TCER1003 (antibody, V domains shown)
VH: QITLKESGPTLVKPTQTLTLTCTFSGFSLTTTDVGVGWIRQPPGKALEWLTIIYWDDDERYSPSLKSRLTITKDTSKNQVVLSMTNMDPVDTATYYCARVYSTKWDFDYWGQGTLVTVSS
VL: VSSELTQDPAVSVALGQTVRITCQGDSLRRYYVSWYRQKPGEAPVVVIYGKNNRPSWIPDRLSGSSSGNTASLTITGAQAEDEADYYCCSRDSSGNPWVFGGGTKLTVLG
notes: VH/VL only
B6: binds [6]; binds [7].

B7: TCER1006 (antibody, V domains shown)
VH: EVQLVQSGAEVKKPGESLKISCKGSGYSFTSFWIGWVRQMPGKGLEWMGIIFPADSDTRYSPSFQGQVIISVDKSISTAYLQWSSLKASDTAMYYCARRGVSGGSAWTYYNFFDPWGQGTLVTVAS
VL: PSVLTQPPSVSAAPGQKVTISCSGSSSNIDNNYVSWYQQLPGTAPKLLIYENNKRASGIPDRFSGSKSGTSATLGITGLQTGDEADYYCGTWDSSLSPGGVFGGGTKLTVLG
notes: VH/VL only
B7: binds [8].

B8: TCHO1001 (antibody, V domains shown)
VH: PVHLVQSGAEVKKPGSSVKVSCKLSGGIFSYFAIIWVRQAPGQGLEWMGTIIPIFGTSNYAEKFQDRVAIVADEATSTVYMEVNSLRSEDTAIYFCARDSEVEKSDGYMASTAEYFQLWGQGTLVTVSS
VL: not shown
notes: VH/VL only
B8: binds [9].

B9: TCOL1004 (antibody, V domains shown)
VH: QVQLQESGPGLVKPSQTLSLTCIVSGGSISGDKNFWSWVRQHPEKGLEWLGYISYNGNTYYNPSLISRIIISLDTPKNLFSLRLSSVTVADTAIYYCAREVDIRGDSDAFDIWGRGTVVTVSS
VL: EIVMTQSPATLSVSPGERATLSCRASQSVSTNLAWYQQRPGQAPRLFIFGASTRATGIPARFSGSGSGTEFTLTISSPQPEDSAVYYCQQYTTRPLTFGGGTKVEIKR
notes: VH/VL only
B9: binds (extended synaptotagmin 2).
